The values that follow come from publication PMC9122595.

Sequences and labels used below:
B1: S5 (dsDNA)
DNA 1: GCTTTCTTCCATCTTGAAAA
DNA 2: TTTTCAAGATGGAAGAAAGC
B2: S2M (dsDNA)
DNA 1: GGGCACAGAGGGTTTAATCA
DNA 2: TGATTAAACCCTCTGTGCCC
B3: S1 (dsDNA)
DNA 1: ATGATAAGCCATGATCACAC
DNA 2: GTGTGATCATGGCTTATCAT
B4: S5M (dsDNA)
DNA 1: GCTTTCTTCGGGCTTGAAAA
DNA 2: TTTTCAAGCCCGAAGAAAGC
B5: S3 (dsDNA)
DNA 1: CTTGTCTGCCATTGTATCTT
DNA 2: AAGATACAATGGCAGACAAG
B6: S4M (dsDNA)
DNA 1: TGGTGCCGAGGGTTTTTTTC
DNA 2: GAAAAAAACCCTCGGCACCA
B7: S4 (dsDNA)
DNA 1: TGGTGCCGACATTTTTTTTC
DNA 2: GAAAAAAAATGTCGGCACCA
B8: S2 (dsDNA)
DNA 1: GGGCACAGACATTTTAATCA
DNA 2: TGATTAAAATGTCTGTGCCC
B9: CDC6 probe (dsDNA)
DNA 1: CGCTCCCCGGCCATCTTGGCGGCTGGT
DNA 2: ACCAGCCGCCAAGATGGCCGGGGAGCG

T1 sequence (P25490 whole entry): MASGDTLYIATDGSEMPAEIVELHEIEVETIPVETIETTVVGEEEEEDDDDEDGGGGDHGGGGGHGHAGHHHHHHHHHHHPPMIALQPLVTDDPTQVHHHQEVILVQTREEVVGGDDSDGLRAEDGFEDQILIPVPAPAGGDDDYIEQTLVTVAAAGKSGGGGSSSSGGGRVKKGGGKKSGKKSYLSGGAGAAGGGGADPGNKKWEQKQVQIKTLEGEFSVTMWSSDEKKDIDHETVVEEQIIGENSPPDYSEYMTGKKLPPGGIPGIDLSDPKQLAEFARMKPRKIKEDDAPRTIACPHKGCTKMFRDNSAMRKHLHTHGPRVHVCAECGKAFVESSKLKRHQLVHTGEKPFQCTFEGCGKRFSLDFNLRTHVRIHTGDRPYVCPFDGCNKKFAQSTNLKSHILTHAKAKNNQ

The first series addresses T1, His6-YY1 (UniProt P25490 1-414). Kind of series: competition.
B1: the binding result is given as “binds”.
As to B2, the binding result was “no binding”.
B3: the binding result is on record as “no binding”.
Consider B4, for which the binding result is “no binding”.
As to B5, the binding result is on record as “no binding”.
Same read-out and setting: as for B6, the entry is “no binding”.
Still for that read-out and setting: as for B7, the entry is “binds”.

The next series concerns the target T1, His6-YY1. The experiment in a line: EMSA.
As for B8, the binding result is “binds”.
Same read-out and setting: as for B9, the entry is “binds”.
